Like-named read-outs stand apart in the source and are kept apart here.
Columns and labels:
[1] = 0.146 mg CNP-38 eq/kg
Protocol: (§1) Plasma total CNP-38 concentrations (conjugated and released CNP-38) were determined by quantification of the N-terminal signature peptide (sequence: […]) and C-terminal signature peptide (sequence: […]) after tryptic digestion.
(§2) LC-MS analysis was carried out by using an Agilent 1290 UPLC coupled to an Agilent 6550 iFunnel Q-TOF mass spectrometer via an ESI probe. Chromatography was performed on a Waters Acquity BEH300 C18 analytical column (50×2.1 mm I.D., 1.7 μm particle size) with pre-filter at a flow rate of 0.25 mL/min (T=25° C.). Water (UPLC grade) containing 0.2% formic acid (v/v) was used as mobile phase A and acetonitrile (UPLC grade) with 0.2% formic acid as mobile phase B. The gradient system comprised a short isocratic step at the initial parameters of 0.1% B for 3.0 min followed by a linear increase from 0.1% B to 16% B in 17 min. Mass analysis was performed in the single ion monitoring (SIM) mode, monitoring the ions m/z 482.75 [M+2H]^2+ (N-terminal) and m/z 824.36 [M+H]^1+ (C-terminal). As internal standard deuterated CNP-38 peptide was used.
(§3) Calibration standards of CNP-38 conjugate in blank plasma were prepared as follows: The thawed Li-heparin cynomolgous plasma was first homogenized, then centrifuged for 5 minutes. […] These solutions were used for the generation of a calibration curve.
(§4) For sample preparation, protein precipitation was carried out by addition of 300 μL of pre-cooled (0° C.) methanol to 100 μL of the plasma sample. 200 μL of the supernatant were transferred into a new well-plate and evaporated to dryness (under a gentle nitrogen stream at 35° C.). 100 μL of reconstitution solvent (Thermo digestion buffer, order number 60109-101, Thermo Fisher Scientific GmbH, Dreieich, Germany) were used to dissolve the residue. 20 μg of trypsin (order number V5111, Promega GmbH, Mannheim, Germany) were dissolved in 20 μL of 10 mM acetic acid. 2 μL of the trypsin solution were added to each cavity.
(§5) After 4 hours incubation at 37° C. (water bath), 5 μL of a 0.5 M TCEP solution were added to each cavity and incubated again for 5 min at 96° C. After the samples had cooled to room temperature, 3 μL acetonitrile were added. The eluates were transferred into vials. 10 μL were injected into the UPLC-MS system.
Blood samples were collected up to 168 h post dose, and plasma was generated. Plasma total CNP-38 concentrations were determined by quantification of the N-terminal signature peptide (sequence: […]) and C-terminal signature peptide (sequence: […]) after tryptic digestion as described in Materials and Methods.

[2] = 0.146 mg CNP-38 eq/kg; remark: listed apart in the source
Protocol: as §1, §2, §3, §4, §5
Male cynomolgus monkeys (2-4 years old, 3-5 kg) received either a single subcutaneous administration (n=3 animals) of compound 10f or a single subcutaneous (n=3 animals) administration of 11i at a dose of 0.146 mg CNP-38 eq/kg. Blood samples were collected up to 168 h post dose, and plasma was generated. Plasma levels of total CNP-38 content were analyzed as described in example 24. In order to analyze the plasma content of free CNP-38, the blood samples were acidified after withdrawal by adding 20 vol % of 0.5 M sodium citrate buffer pH 4 to stop further CNP-38 release from the conjugate. Free CNP-38 levels in plasma can e.g. be determined by ELISA using a CNP antibody that binds to the ring region of CNP, as described in the literature (U.S. Pat. No. 8,377,884 B2), or by LC-MS/MS.

Substance	half life time of CNP-38 content ([1]; single intravenous injection, plasma total CNP-38)	CNP-38 tmax ([1]; single intravenous injection, plasma total CNP-38, earliest time point analyzed)	dose site reactions ([1]; single iv or sc dose)	tolerability of dose administrations ([1]; single iv or sc dose)	CNP-38 concentration at 168 h ([1]; single subcutaneous injection)	CNP-38 tmax ([1]; single subcutaneous injection, plasma total CNP-38)	bioavailability ([1]; subcutaneous vs intravenous)	dose site reactions ([2]; single sc)	tolerability of dose administrations ([2]; single sc)	Total CNP-38 plasma levels after 120 h ([2]; single sc, C-terminal peptide, below LOQ)	total CNP-38 tmax ([2]; single subcutaneous administration)
Permanent Lys26 CNP-38 PEG4×10 kDa Conjugate [Compound 12g]	approx. 24 h	0.25 h	No dose site reactions were observed	well tolerated	ca. 50 % of cmax	48 h	ca. 50%				
Reversible Lys26 CNP-38 PEG2×20 kDa Conjugate [Compound 10f]								No dose site reactions were observed	well tolerated	< 100 ng/mL	12 h

Source: patent publication US12544428B2, “Controlled-release CNP agonists with reduced side-effects” (ASCENDIS PHARMA GROWTH DISORDERS A/S, priority 2016, dated 2026)
